In the test the target is bovine arrestin-3^1−393 (truncated arrestin-3, residues 1–393), purified (bovine, UniProt P32120 1-393). The experiment in a line: MST.
bovine arrestin-3^1−393 (truncated arrestin-3, residues 1–393), purified, sequence (P32120 1-393): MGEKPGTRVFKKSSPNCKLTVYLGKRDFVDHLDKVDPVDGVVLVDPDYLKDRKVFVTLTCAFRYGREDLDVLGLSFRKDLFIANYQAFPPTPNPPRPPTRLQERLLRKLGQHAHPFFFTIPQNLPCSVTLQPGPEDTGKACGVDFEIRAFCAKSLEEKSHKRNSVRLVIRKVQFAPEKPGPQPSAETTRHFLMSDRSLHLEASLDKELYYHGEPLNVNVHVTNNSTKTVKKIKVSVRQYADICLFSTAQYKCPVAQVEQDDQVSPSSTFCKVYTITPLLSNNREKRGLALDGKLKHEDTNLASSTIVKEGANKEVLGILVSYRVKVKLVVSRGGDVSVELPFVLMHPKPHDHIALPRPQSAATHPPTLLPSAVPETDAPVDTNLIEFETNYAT

B1: human His-MELK^1−326,T167E (maternal embryonic leucine-zipper kinase, kinase domain and flanking ubiquitin-associated domain, residues 1–326, T167E) (domain or fragment, UniProt Q14680 1-326, looked up)
chain: MKDYDELLKYYELHETIGTGGFAKVKLACHILTGEMVAIKIMDKNTLGSDLPRIKTEIEALKNLRHQHICQLYHVLETANKIFMVLEYCPGGELFDYIISQDRLSEEETRVVFRQIVSAVAYVHSQGYAHRDLKPENLLFDEYHKLKLIDFGLCAKPKGNKDYHLQECCGSLAYAAPELIQGKSYLGSEADVWSMGILLYVLMCGFLPFDDDNVMALYKKIMRGKYDVPKWLSPSSILLLQQMLQVDPKKRISMKNLLNHPWIMQDYNYPVEWQSKNPFIHLDDDCVTELSVHHRNNRQTMEDLISLWQYDHLTATYLLLLAKKAR
modifications: RED-tris-NTA dye on the His tag (in the MST experiment only)
Turning to B1, the Kd turned out to be 130 ± 35 nM.

The record behind these values is article PMC6717526 (Cellular signalling, 2019).
